Measurements reported in paper PMC5640227.

Experiments:
[1] = target: Human Respiratory Syncytial Virus Matrix (M) protein, GAL4 fusion (Human Respiratory Syncytial Virus) (UniProt P0DOE7); test: two-hybrid
[2] = target: Adaptor protein complex 3 medium subunit (AP-3Mu3A), GAL4 fusion (human (HeLa cDNA library)) (UniProt Q9Y2T2); test: two-hybrid
UniProt Q9Y2T2, sequence (Q9Y2T2 whole entry, the tested form may be a part, one chain of several): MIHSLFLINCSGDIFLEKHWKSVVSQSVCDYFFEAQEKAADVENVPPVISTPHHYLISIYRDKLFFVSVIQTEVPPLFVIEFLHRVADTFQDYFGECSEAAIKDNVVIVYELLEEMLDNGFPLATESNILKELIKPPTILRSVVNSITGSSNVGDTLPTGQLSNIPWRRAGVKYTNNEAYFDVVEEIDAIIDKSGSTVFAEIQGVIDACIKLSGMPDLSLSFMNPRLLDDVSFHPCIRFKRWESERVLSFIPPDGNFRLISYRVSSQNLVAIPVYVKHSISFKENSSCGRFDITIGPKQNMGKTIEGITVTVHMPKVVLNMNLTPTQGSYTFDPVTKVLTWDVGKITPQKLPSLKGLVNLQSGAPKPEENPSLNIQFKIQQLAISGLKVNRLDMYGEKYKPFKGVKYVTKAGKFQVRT

Adaptor protein complex 3 medium subunit (AP-3Mu3A), GAL4 fusion (from UniProt Q9Y2T2 1-418) (natural protein)
beta-Galactosidase activity [1]: 458 units

B1: Human Respiratory Syncytial Virus Matrix (M) protein, GAL4 fusion (natural protein)
chain: METYVNKLHEGSTYTAAVQYNVLEKDDDPASLTIWVPMFQSSMPADLLIKELANVNILVKQISTPKGPSLRVMINSRSAVLAQMPSKFTICANVSLDERSKLAYDVTTPCEIKACSLTCLKSKNMLTTVKDLTMKTLNPTHDIIALCEFENIVTSKKVIIPTYLRSISVRNKDLNTLENITTTEFKNAITNAKIIPYSGLLLVITVTDNKGAFKYIKPQSQFIVDLGAYLEKESIYYVTTNWKHTATRFAIKPMED
beta-Galactosidase activity [2]: 420 units
